From patent US20160002357A1 (Pfizer, published 2016)
“And” between values parts separate entries of the source, which are not always exact repeats. Equal values may be shown once.

Tests used:
[1] = target: T1, cynomolgus monkey P-cadherin ECD (cynomolgus monkey); test: SPR Biacore pH 7.4
T1 construct: extracellular domain; also called cyno P-cadherin ECD; Cyno P-cadherin

[2] = target: T1, cynomolgus monkey P-cadherin ECD; test: SPR Biacore pH 7.4, average
[3] = target: T1, cynomolgus monkey P-cadherin ECD; test: SPR
Hu P-cadherin-Fc = target: T2, Hu P-cadherin-Fc (human, UniProt P22223 108-654, limits assumed); test: ELISA
T2 construct: also called recombinant human P-cadherin-Fc; human P-cadherin-Fc; not shown: Fc
T2 sequence (P22223 108-654 limits assumed): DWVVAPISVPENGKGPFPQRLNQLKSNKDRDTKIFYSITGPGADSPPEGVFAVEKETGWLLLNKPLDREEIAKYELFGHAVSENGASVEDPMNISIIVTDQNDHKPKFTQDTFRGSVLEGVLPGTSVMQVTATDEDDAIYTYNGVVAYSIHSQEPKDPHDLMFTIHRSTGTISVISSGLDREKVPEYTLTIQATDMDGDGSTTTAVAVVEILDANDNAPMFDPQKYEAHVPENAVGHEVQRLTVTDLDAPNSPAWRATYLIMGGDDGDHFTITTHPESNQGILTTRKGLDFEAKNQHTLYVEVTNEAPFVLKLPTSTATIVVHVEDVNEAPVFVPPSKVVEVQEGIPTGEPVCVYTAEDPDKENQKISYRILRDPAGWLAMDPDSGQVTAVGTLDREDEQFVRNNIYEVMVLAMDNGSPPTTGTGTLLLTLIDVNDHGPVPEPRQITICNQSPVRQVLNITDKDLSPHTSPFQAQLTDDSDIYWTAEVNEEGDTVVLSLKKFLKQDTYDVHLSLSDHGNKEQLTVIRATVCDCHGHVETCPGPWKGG

[4] = target: T1, cynomolgus monkey P-cadherin ECD; test: SPR Biacore
Description: (§1) Binding affinity of EK-DART proteins to P-cadherin and CD3 was analyzed by SPR using a BIACORE® 3000 biosensor (GE Healthcare). The antigens huCD3εδ and either human P-cadherin-Fc or human/cynomolgus monkey/murine P-cadherin-ECD were immobilized on the CM-5 sensor chip by amine coupling kit as recommended by the manufacturer. […] All EK-DART proteins in Tables 15 and 16 comprise CD3-2.
All EK-DART proteins in Table 17 comprise CD3-2.

[5] = target: T3, human P-cadherin expressed on the cell surface (human, UniProt P22223 108-829); test: cell-based or functional assay
T3 sequence (P22223 108-829): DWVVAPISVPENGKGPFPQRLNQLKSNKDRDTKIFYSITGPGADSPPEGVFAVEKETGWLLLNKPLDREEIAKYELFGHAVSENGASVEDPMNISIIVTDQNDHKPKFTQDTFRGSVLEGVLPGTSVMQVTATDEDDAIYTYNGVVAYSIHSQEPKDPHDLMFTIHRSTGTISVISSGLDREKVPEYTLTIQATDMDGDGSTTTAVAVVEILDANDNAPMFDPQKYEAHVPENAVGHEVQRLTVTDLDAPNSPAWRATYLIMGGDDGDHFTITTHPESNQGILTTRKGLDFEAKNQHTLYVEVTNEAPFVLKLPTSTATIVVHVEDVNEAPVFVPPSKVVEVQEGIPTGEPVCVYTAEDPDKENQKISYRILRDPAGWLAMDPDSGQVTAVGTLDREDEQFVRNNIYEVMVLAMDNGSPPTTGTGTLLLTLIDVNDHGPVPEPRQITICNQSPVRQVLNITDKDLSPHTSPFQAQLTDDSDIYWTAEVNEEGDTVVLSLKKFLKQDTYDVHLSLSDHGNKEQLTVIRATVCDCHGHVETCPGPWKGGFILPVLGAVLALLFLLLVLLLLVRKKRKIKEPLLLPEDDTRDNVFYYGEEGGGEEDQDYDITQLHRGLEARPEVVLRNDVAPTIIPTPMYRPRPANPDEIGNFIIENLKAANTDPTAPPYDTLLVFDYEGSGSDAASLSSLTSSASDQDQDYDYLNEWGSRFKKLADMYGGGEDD

[6] = target: T3, human P-cadherin expressed on the cell …; test: cell ELISA, H1650 cells
[7] = target: T1, cynomolgus monkey P-cadherin ECD; test: SPR Biacore 3000, antigen immobilised
Description: as §1

Row | Binder | Kd [1] | koff [1] | kon [1] | t½ [1] | Kd [2] [nM] | Kd [3] [nM] | EC50 (Hu P-cadherin-Fc) [nM] | Kd [4] [nM] | koff [4] [s⁻¹] | kon [4] [M⁻¹ s⁻¹] | T cell Cytotoxicity [5] [nM] | EC50 [6] [nM] | Kd [7] [nM] | koff [7] [s⁻¹] | kon [7] [M⁻¹ s⁻¹]
1 | 153 MP3 N-terminal DART (bispecific antibody, human IgG1) chain 1: QSVLTQPPSVSAAPGQKVTISCSGSSSNIGNNYVSWYQQLPGTAPKLLIYDNNKRPSGIPDRFSGSKSGTSATLGITGLQTGDEADYYCGTWDSSLSGVVFGGGTKLTVLGGGGSGGGGEVQLVESGGGLVQPGGSLRLSCAASGFTFSTYAMNWVRQAPGKGLEWVGRIRSKYNNYATYYADSVKGRFTISRDDSKNSLYLQMNSLKTEDTAVYYCVRHGNFGNSYVSWFAYWGQGTLVTVSSGVEPKSCDKTHTCPPCPAPEAAGAPSVFLFPPKPKDTLMISRTPEVTCVVVDVSHEDPEVKFNWYVDGVEVHNAKTKPREEQYNSTYRVVSVLTVLHQDWLNGKEYKCKVSNKALPAPIEKTISKAKGQPREPQVYTLPPSREEMTKNQVSLWCLVKGFYPSDIAVEWESNGQPENNYKTTPPVLDSDGSFFLYSKLTVDKSRWQQGNVFSCSVMHEALHNHYTQKSLSLSPGK chain 2: QAVVTQEPSLTVSPGGTVTLTCRSSTGAVTTSNYANWVQQKPGQAPRGLIGGTNKRAPWTPARFSGSLLGGKAALTITGAQAEDEADYYCALWYSNLWVFGGGTKLTVLGGGGSGGGGEVQLVQSGAEVKKPGASVKVSCKASGYTFTSYGISWVRQAPGQGLEWMGWISAYNGNTNYAQKLQGRVTMTTDTSTSTAYMELRSLRSDDTAVYYCATIDTANAFGIWGQGTMVTVSSGFNRGEC chain 3: DKTHTCPPCPAPEAAGAPSVFLFPPKPKDTLMISRTPEVTCVVVDVSHEDPEVKFNWYVDGVEVHNAKTKPREEQYNSTYRVVSVLTVLHQDWLNGKEYKCKVSNKALPAPIEKTISKAKGQPREPQVYTLPPSREEMTKNQVSLSCAVKGFYPSDIAVEWESNGQPENNYKTTPPVLDSDGSFFLVSKLTVDKSRWQQGNVFSCSVMHEALHNRYTQKSLSLSPGK | 2.43 nM and 2.78 nM | 0.000296 s⁻¹ and 0.000228 s⁻¹ | 122000 M⁻¹ s⁻¹ and 81900 M⁻¹ s⁻¹ | 36.8 min and 47.8 min | 2.61 | – | – | – | – | – | – | – | – | – | –
2 | 35 EK-DART (bispecific antibody, also called P-CAD 35 EK-DART (CD3-2); parental 35 EK-DART) chain 1: QSVLTQPPSVSAAPGQKVTISCSGSSSNIGNNYVSWYQQLPGTAPKLLIYDNNKRPSGIPDRFSGSKSGTSATLGITGLQTGDEADYYCGTWDSSLSAVVFGGGTKLTVLGGGSGGGGEVQLVESGGGLVQPGGSLRLSCAASGFTFNTYAMNWVRQAPGKGLEWVARIRSKYNNYATYYADSVKDRFTISRDDSKNSLYLQMNSLKTEDTAVYYCVRHGNFGNSYVSWFAYWGQGTLVTVSSGGCGGGKVAALKEKVAALKEKVAALKEKVAALKE chain 2: QAVVTQEPSLTVSPGGTVTLTCRSSTGAVTTSNYANWVQQKPGQAPRGLIGGTNKRAPWTPARFSGSLLGGKAALTITGAQAEDEADYYCALWYSNLWVFGGGTKLTVLGGGGSGGGGEVQLVQSGAEVKKPGASVKVSCKASGYTFTSYGISWVRQAPGQGLEWMGWISAYNGNTNYAQKLQGRVTMTTDTSTSTAYMELRSLRSDDTAVYYCATIDTASAFDIWGQGTMVTVSSGGCGGGEVAALEKEVAALEKEVAALEKEVAALEK | – | – | – | – | – | 42.8 | 1.92 | 35 | 0.0215 | 614000 | 0.33 | 24.9 | 43.4 | 0.0138 | 318000
3 | 153 EK-DART (bispecific antibody) chain 1: QSVLTQPPSVSAAPGQKVTISCSGSSSNIGNNYVSWYQQLPGTAPKLLIYDNNKRPSGIPDRFSGSKSGTSATLGITGLQTGDEADYYCGTWDSSLSGVVFGGGTKLTVLGGGSGGGGEVQLVESGGGLVQPGGSLRLSCAASGFTFNTYAMNWVRQAPGKGLEWVARIRSKYNNYATYYADSVKDRFTISRDDSKNSLYLQMNSLKTEDTAVYYCVRHGNFGNSYVSWFAYWGQGTLVTVSSGGCGGGKVAALKEKVAALKEKVAALKEKVAALKE chain 2: QAVVTQEPSLTVSPGGTVTLTCRSSTGAVTTSNYANWVQQKPGQAPRGLIGGTNKRAPWTPARFSGSLLGGKAALTITGAQAEDEADYYCALWYSNLWVFGGGTKLTVLGGGGSGGGGEVQLVQSGAEVKKPGASVKVSCKASGYTFTSYGISWVRQAPGQGLEWMGWISAYNGNTNYAQKLQGRVTMTTDTSTSTAYMELRSLRSDDTAVYYCATIDTANAFGIWGQGTMVTVSSGGCGGGEVAALEKEVAALEKEVAALEKEVAALEK | 0.403 nM and 0.43 nM | 0.000211 s⁻¹ and 0.000222 s⁻¹ | 524000 M⁻¹ s⁻¹ and 517000 M⁻¹ s⁻¹ | 51.6 min and 49 min | 0.417 | – | – | 0.232 | 0.000172 | 732000 | – | – | – | – | –
4 | 33 EK-DART (bispecific antibody, CD3 VL x P-CAD VH-E-coil); also called P-CAD 33 EK-DART (CD3-2)) chain 1: QSVLTQPPSVSAAPGQKVTISCSGSSSNIGNNYVSWYQQLPGTAPKLLIYDNNKRPSGIPDRFSGSKSGTSATLGITGLQTGDEADYYCGTWDSSLSAYVFGTGTKVTVLGGGSGGGGEVQLVESGGGLVQPGGSLRLSCAASGFTFNTYAMNWVRQAPGKGLEWVARIRSKYNNYATYYADSVKDRFTISRDDSKNSLYLQMNSLKTEDTAVYYCVRHGNFGNSYVSWFAYWGQGTLVTVSSGGCGGGKVAALKEKVAALKEKVAALKEKVAALKE chain 2: QAVVTQEPSLTVSPGGTVTLTCRSSTGAVTTSNYANWVQQKPGQAPRGLIGGTNKRAPWTPARFSGSLLGGKAALTITGAQAEDEADYYCALWYSNLWVFGGGTKLTVLGGGGSGGGGQMQLVQSGAEVKKPGASVKVSCKASGYTFTSYGISWVRQAPGQGLEWMGWISAYNGNTNYAQKLQGRVTMTTDTSTSTAYMELRSLRSDDTAVYYCALIGSGVAFDIWGQGTMVTVSSGGCGGGEVAALEKEVAALEKEVAALEKEVAALEK | – | – | – | – | – | – | 1.8 | – | – | – | – | 60.1 | 46.4 | 0.0578 | 1.15e+06
5 | 34 EK-DART (bispecific antibody, also called P-CAD 34 EK-DART (CD3-2)) chain 1: QSVVTQPPSVSAAPGQKVTISCSGSSSNIGNNYVSWYQQLPGTAPKLLIYDNNKRPSGIPDRFSGSKSGTSATLGITGLQTGDEADYYCGTWDSSLSAWVFGGGTKLTVLGGGSGGGGEVQLVESGGGLVQPGGSLRLSCAASGFTFNTYAMNWVRQAPGKGLEWVARIRSKYNNYATYYADSVKDRFTISRDDSKNSLYLQMNSLKTEDTAVYYCVRHGNFGNSYVSWFAYWGQGTLVTVSSGGCGGGKVAALKEKVAALKEKVAALKEKVAALKE chain 2: QAVVTQEPSLTVSPGGTVTLTCRSSTGAVTTSNYANWVQQKPGQAPRGLIGGTNKRAPWTPARFSGSLLGGKAALTITGAQAEDEADYYCALWYSNLWVFGGGTKLTVLGGGGSGGGGEVQLVQSGAEVKKPGASVKVSCKASGYTFTSYGISWVRQAPGQGLEWMGWISAYNGNTNYAQKLQGRVTMTTDTSTSTAYMELRSLRSDDTAVYYCATIDTASAFDIWGQGTMVTVSSGGCGGGEVAALEKEVAALEKEVAALEKEVAALEK | – | – | – | – | – | – | 2.85 | – | – | – | – | 68 | 129 | 0.0833 | 705000
6 | 20 EK-DART (bispecific antibody, also called P-CAD 20 EK-DART (CD3-2)) chain 1: AIQMTQSPSSLSASVGDRVTITCRASQSIGKYLNWYQQIPGKAPKLLIYTASTLQTGVPSRFSGSGSGTDFTLTIVSLQPEDFATYYCQQSFNTPRTFGQGTKVEIKGGGSGGGGEVQLVESGGGLVQPGGSLRLSCAASGFTFNTYAMNWVRQAPGKGLEWVARIRSKYNNYATYYADSVKDRFTISRDDSKNSLYLQMNSLKTEDTAVYYCVRHGNFGNSYVSWFAYWGQGTLVTVSSGGCGGGKVAALKEKVAALKEKVAALKEKVAALKE chain 2: QAVVTQEPSLTVSPGGTVTLTCRSSTGAVTTSNYANWVQQKPGQAPRGLIGGTNKRAPWTPARFSGSLLGGKAALTITGAQAEDEADYYCALWYSNLWVFGGGTKLTVLGGGGSGGGGEVQLVQSGAEVKKPGASVKVSCKASGYTFTGYYMHWVRQAPGQGLEWMGRINPNSGGTNYAQKFQGRVTMTRDTSISTAYMELSRLRSDDTAVYYCAKGSGSGAFDIWGQGTMVTVSSGGCGGGEVAALEKEVAALEKEVAALEKEVAALEK | – | – | – | – | – | – | 12.3 | – | – | – | – | ~115 | 2.03 | 0.00704 | 3.46e+06
7 | 30 EK-DART (bispecific antibody, also called P-CAD 30 EK-DART (CD3-2)) chain 1: DIVMTQSPLSLPVTLGQPASISCRSSQSLVHSDGNTYLHWFQQRPGQSPRRLIYKVSNRDSGVPDRFSGSGSGTDFTLKISRVEAEDVGVYYCMQGTHWPPLFGQGTKVEIKGGGSGGGGEVQLVESGGGLVQPGGSLRLSCAASGFTFNTYAMNWVRQAPGKGLEWVARIRSKYNNYATYYADSVKDRFTISRDDSKNSLYLQMNSLKTEDTAVYYCVRHGNFGNSYVSWFAYWGQGTLVTVSSGGCGGGKVAALKEKVAALKEKVAALKEKVAALKE chain 2: QAVVTQEPSLTVSPGGTVTLTCRSSTGAVTTSNYANWVQQKPGQAPRGLIGGTNKRAPWTPARFSGSLLGGKAALTITGAQAEDEADYYCALWYSNLWVFGGGTKLTVLGGGGSGGGGEVQLVESGGGVVQPGRSLRLSCAASGFTFSSYGMHWVRQAPGKGLEWVAVISYDGSNKYYADSVKGRFTISRDNSKNTLYLQMNSLRAEDTAVYYCAKSSSDRTFDYWGQGTLVTVSSGGCGGGEVAALEKEVAALEKEVAALEKEVAALEK | – | – | – | – | – | – | 3.68 | – | – | – | – | 142 | 1.37 | 0.00648 | 4.72e+06
